# Laboratory results taken from paper PMC8161381.
# T1: human cathepsin H (human)
# T1 sequence (P09668 116-335, looked up): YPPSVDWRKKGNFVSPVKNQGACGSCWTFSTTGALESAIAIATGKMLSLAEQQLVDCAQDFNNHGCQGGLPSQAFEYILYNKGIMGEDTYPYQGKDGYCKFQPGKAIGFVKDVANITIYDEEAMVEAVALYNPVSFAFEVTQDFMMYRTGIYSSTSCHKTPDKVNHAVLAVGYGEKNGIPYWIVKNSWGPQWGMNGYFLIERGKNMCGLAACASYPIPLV
# T2: human cathepsin K (human) (UniProt P43235)
# T2 sequence: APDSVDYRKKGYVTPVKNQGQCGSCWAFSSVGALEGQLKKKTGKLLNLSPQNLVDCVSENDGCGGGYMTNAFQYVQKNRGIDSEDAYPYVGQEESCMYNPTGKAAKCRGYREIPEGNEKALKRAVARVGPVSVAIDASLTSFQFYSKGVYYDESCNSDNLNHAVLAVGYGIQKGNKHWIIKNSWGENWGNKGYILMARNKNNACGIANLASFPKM
# B1: mialostatin (natural protein)
# chain: GSASRSKRALVGGWKTQDPTNPKFENLAHYAVSTQVEGREYYDTVLELLEVQTQIVAGVNYKLKFTTTQSTCKIETGVEYSKELCQPKTNKVEAVCTSIIYTVPWQNIKRVLSYHCDAPNDV
# Key:
# [1] = target: Ixodes ricinus cathepsin L1 (Ixodes ricinus)
# [2] = target: human cathepsin C (human)
# Chain of human cathepsin C (human) (P53634 25-463): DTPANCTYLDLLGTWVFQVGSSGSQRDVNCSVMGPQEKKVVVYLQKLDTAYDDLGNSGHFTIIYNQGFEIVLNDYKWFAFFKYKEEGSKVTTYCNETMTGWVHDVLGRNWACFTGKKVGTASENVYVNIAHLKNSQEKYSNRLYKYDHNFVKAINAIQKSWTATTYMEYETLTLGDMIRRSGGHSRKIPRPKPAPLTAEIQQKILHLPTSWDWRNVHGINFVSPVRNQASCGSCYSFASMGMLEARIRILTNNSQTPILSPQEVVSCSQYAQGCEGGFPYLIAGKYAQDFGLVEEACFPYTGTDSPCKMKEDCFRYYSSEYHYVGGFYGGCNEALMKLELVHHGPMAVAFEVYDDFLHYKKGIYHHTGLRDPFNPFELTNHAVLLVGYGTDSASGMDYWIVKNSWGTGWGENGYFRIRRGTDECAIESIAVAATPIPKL
# [3] = target: cathepsin L-like activity of I. ricinus gut tissue extract (Ixodes ricinus (endogenous in gut tissue))
# [4] = target: human cathepsin L (human)
# Chain of human cathepsin L (human) (P07711 18-333): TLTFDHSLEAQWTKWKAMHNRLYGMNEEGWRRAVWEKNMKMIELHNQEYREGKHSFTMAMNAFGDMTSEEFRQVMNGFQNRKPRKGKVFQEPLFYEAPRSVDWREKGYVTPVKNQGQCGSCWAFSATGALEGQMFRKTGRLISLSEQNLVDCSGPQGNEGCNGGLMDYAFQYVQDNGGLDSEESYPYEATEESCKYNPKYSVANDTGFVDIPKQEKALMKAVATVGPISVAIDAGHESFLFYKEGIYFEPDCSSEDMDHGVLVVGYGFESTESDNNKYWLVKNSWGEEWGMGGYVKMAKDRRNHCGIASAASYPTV
# [5] = target: Ixodes ricinus cathepsin B, native in gut tissue extract (Ixodes ricinus (endogenous in gut tissue))
# [6] = target: T1, human cathepsin H (human)
# [7] = target: human cathepsin S (human) (UniProt P25774)
# Chain of human cathepsin S (human) (P25774 115-331): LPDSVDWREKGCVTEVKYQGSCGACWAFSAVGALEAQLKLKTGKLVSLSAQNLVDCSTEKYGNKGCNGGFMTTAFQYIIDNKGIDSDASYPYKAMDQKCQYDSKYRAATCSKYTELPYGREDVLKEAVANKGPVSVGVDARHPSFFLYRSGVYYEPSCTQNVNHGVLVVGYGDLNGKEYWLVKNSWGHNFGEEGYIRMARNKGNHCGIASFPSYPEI
# [8] = target: cathepsins L and B activity of I. ricinus gut tissue extract (Ixodes ricinus (endogenous in gut tissue))
# [9] = target: human cathepsin B (human)
# [10] = target: T2, human cathepsin K (human)
# [11] = target: Ixodes ricinus cathepsin C, native in gut tissue extract (Ixodes ricinus (endogenous in gut tissue))
# [12] = target: Ixodes ricinus cathepsin L3 (Ixodes ricinus)
binder,measurement,setting,value
B1,"IC50 of inhibition of protease activity (kinetic assay, 0.1 nM IrCL1, Z-Phe-Arg-AMC, pH 4.5, 37 °C)",[1],71 pM
same,"IC50 of inhibition of protease activity (kinetic assay, 0.5 nM cathepsin C, Gly-Arg-AMC, pH 5.5, 37 °C)",[2],2.1 nM
same,"IC50 of inhibition of cathepsin L activity in gut tissue extract (kinetic assay, Z-Phe-Arg-AMC, pH 4.5, with CA-074, 37 °C)",[3],0.18 nM
same,"IC50 of inhibition of protease activity (kinetic assay, 33 pM cathepsin L, Z-Leu-Arg-AMC, pH 5.5, 37 °C)",[4],0.38 nM
same,"IC50 of inhibition of cathepsin B activity in gut tissue extract (kinetic assay, Z-Arg-Arg-AMC, pH 6.5, with Z-Phe-Phe-DMK, 37 °C)",[5],12.1 nM
same,"IC50 of inhibition of protease activity (kinetic assay, 20 nM cathepsin H, Z-Leu-Arg-AMC, pH 6.8, 37 °C)",[6],24 nM
same,"IC50 of inhibition of protease activity (kinetic assay, 350 pM cathepsin S, Z-Val-Val-Arg-AMC, pH 5.5, 37 °C)",[7],2.2 nM
same,"IC50 of inhibition of cathepsins L and B activity in gut tissue extract (kinetic assay, Z-Phe-Arg-AMC, pH 5.0, 37 °C)",[8],3.1 nM
same,"IC50 of inhibition of protease activity (kinetic assay, 35 pM cathepsin B, Z-Leu-Arg-AMC, pH 5.5, 37 °C)",[9],9 nM
same,"IC50 of inhibition of protease activity (kinetic assay, 5 nM cathepsin K, Z-Leu-Arg-AMC, pH 5.5, 37 °C)",[10],9.7 nM
same,"IC50 of inhibition of cathepsin C activity in gut tissue extract (kinetic assay, Gly-Arg-AMC, pH 5.5, with E-64, 37 °C)",[11],91.7 nM
same,"IC50 of inhibition of protease activity (kinetic assay, 20 pM IrCL3, Z-Phe-Arg-AMC, pH 4.5, 37 °C)",[12],0.39 nM
